Assay: yeast display, Sf9 membrane polyspecificity reagent, FACS + sequencing; frameworks hold sequencing errors
Outline: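 In a synthetic yeast display library (Saccharomyces cerevisiae BJ5465), nanobody expression was induced with galactose for 36–48 hours. FACS gates were set low and high (top ~1%) using anti-HA fluorescence for expression and streptavidin fluorescence for binding of the Sf9 membrane reagent. Each polyreactivity label is drawn from the gate of origin.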

| Sequence | polyreactivity (PSR sort gate) |
| --- | --- |
| QVQLVESGGRLVQAGGSLRLSCAASGSTFNRYAMGWYRQAPGKERELVAAISRGGSTTYADSVKGRFTISRDNAKHTVYLQMYSLKPEDTAVYYCAALYYSPRYWYDYWGLGTQVTVSS | high polyreactivity |
| QVQLVESGGRLVQAGGSLRLSCAASGSTFSRNARGWNRQAPGKERELVAAISRSSSRTYYADSVKGRFTISRDNAKNTVYLQMNSLKPEDTAVYYCAADGYVWTPYLYDYWGQGTQVTVSS | high polyreactivity |
| QVQLVESGGRLVQAGGSLRLSCAASGSTFTYNAMGWYRQAPGKESELVASISSGTTTYYADSVKGRFTISRDNAKNTVYVQMNSLKPEDTAVYYCAFDSWSRVQGWLAHNYDYWGQGTQVTVSS | low polyreactivity |
| QVQLVESGGRLVQAGGSLRLSCAASGSTFYDYAMGWYRQAPGKERELVASIDSGDSTNYADSVKGRFTISRDNAKNTVYLQMNSLKPEDTAVYYCAADYRAPLDYWGQGTQVTVSS | low polyreactivity |
| QVQLVESGGRLVQAGGSLRLSCAASGSTIVRNGMGWYRQAPGKERELVAAITRGGSTYYADSVKGRFTISRDNAKNTVYLQMNSLKPEDTAVYYCATYDPARSTQGYDYWGQGTQVTVSS | high polyreactivity |
| QVQLVESGGRLVQAGGSLRLSCAASGSTIYPNAMGWSRQAPGKERELVAAISRGTRTKYADSVKGRFTISRDNAKNTVYVQMNSLKPEDTAVYYCAADTGTGLDWGQGTQGTVSS | high polyreactivity |
| QVQLVESGGRLVQAGGSLRLSCAASGSTVGYNALGWYRQAPGKASELVAAITSRGSTNYADSVKGRFTISRDNAKNTVYLQMNSLKPEVTAVYYCAKATSSSEYGYDYWGQGTQVTVSS | high polyreactivity |
| QVQLVESGGRLVQAGGSLRLSCAASGSTYAMGWYRQAPGKERELVASITSRGGSTYYADSVKGRFTISRDNAKNTVYLQMNSLKPEDTAVYYCAARWYFSYIGYDYWGQGTQVTVSS | high polyreactivity |
| QVQLVESGGRLVQAGGSLRLSCAASGYIFSRNAMGSYRQAPGKERELVATISRGGSTYYGDSVKGRFTISRDNDKNTVYLQMNSLKPEDTAVYFCAATVVYWRSKSSVRRYDYWGQGTQVTVSS | high polyreactivity |
| QVQLVESGGRLVQAGGSLRLSGAASGITLGTYLMGWYRQAPGKEREMLAAISSGGSTYYADSVKGRFTISRDNAKNTVFLQMNSLKPEDTAVYYCAAQYYPYYDSRVSYDYWGQGTQVTVSS | low polyreactivity |
| QVQLVESGGRLVQAGGSLRLSSAASGGTFYRNARGWYRQAPGKERELVASISRTGGSTYYADSVKGRFTISRDNAKNTVYLQMNSLKQVDTAVYYCAKKQPRYSYFDNDYWGQGTQVTVSS | high polyreactivity |
| QVQLVESGGRLVQAGGSLRLTCAASGSTFSRYAMGWSRQAPGKERELVAAITGSGGNTYYADSVKGRFTISRDNAKNTVYLQMNSLKPEDTAVYYCAAEDYVGWYNFEYWGQGTQVTVSS | high polyreactivity |
| QVQLVESGGRLVQAGGSLRLTCAASGSTFTTYAMGWSRQAPGKERELVAAITSGSSTNYADSVKGRFTISRDNAKNTVYLQMNSLKPEDTAVYYCAVDREWPGYYYAISKMYYWGQGTQVTVSS | low polyreactivity |
| QVQLVESGGRLVQAGGSLRLTCDASGRTFDYNAMGWYRQAPWKERQLVAAITSRGGSTYYADSVKGRFTISRDNAKNTVYLQMNSLKPEDTAVYYCAAQHSVLAYFEYDYWGQGTQVTVSS | low polyreactivity |
| QVQLVESGGRLVQAGRSLRLSCAASGRTLKQYVMGWYRQAPGKERELVAAISRRGSSTYYADSVKGRFTISRDNAKNTVYLQMYSLKPEDTAVYYCAAPVYTTRHITAAYEEYGYWGQGTQVNVSS | high polyreactivity |
| QVQLVESGGRLVQSGGSLRLSCAASGRIFLYYTMGWYRQAPGKERELVATIRSGDSTNYADSVKGRFTISRDNAKNTVYLQMNSLKPEVTAVYYCAADWDIFQQGANGAPYDYWGQGTQVTVSS | low polyreactivity |

| Sequence | polyreactivity (PSR sort gate) |
| --- | --- |
| QVQLVESGGSLVQAGGSHRLSCAASRSIFPPYAMGWYRPAAGKERELVAAITLRGGSTYYADSVKGRFTISRDNAKNTVYLQMNSLKPEDTAVYYCAAYKSAREYYWGQGTQVTVSS | high polyreactivity |
| QVQLVESGGSLVQAGGSLRLICAASGITFWPYAMGWYRPAPGKERELVAAINSGGDTYYADSVKGRFTISRDNAKNSVYLQMNILKPEDTAVYYCAKGRDWADEEGYEYWGQGTQVTVSS | low polyreactivity |
| QVQLVESGGSLVQAGGSLRLSCAASGYTIDSYGMGWYRQAPGKERELVAPIDWSGGSTYYADSVKGRFTIARDTAKNTVYLQKNSLIPDDSAVYYCNRDSAGPGDVILAYTGNDYWGQGTQVTVSS | low polyreactivity |
| QVQLVESGGSLVQSGGSLRLSCAASGSIFYRNAMGWYRQEPGKERELVASITSGGRTNYADSVKGRFTISRDNAKNTVYLQMNSLKPEDTAVYYCARGRASYTKSGPTPYTGYGYWGQGTQVTVSS | low polyreactivity |
| QVQLVESGGVLDQARGSLRLSCAASGRIFGYNAMGWYRQAPGKERELVAAISWGGGRTYYADSVKGRFTISRDNAKNTVYLQMNSLKPEDTAVYYCNALYVGYYDSMGYWGQGTQVTVSS | high polyreactivity |
| QVQLVESGGVLDQGGGSLRLSCASSGITYRRYAMGWYRQAPGKERELVAANTYGGGSTYYADSVKGRFTISRDNAKNTVYLQMNSLKPADTAVFYCYARYSGGFGGGSKPDYYWGQGTQVTVAS | high polyreactivity |
| QVQLVESGGVLVQAGCSLRLSCAASGRTIPWYTMGWYRQAPRKERELVAAISNGGSTYYADSVKGRFTISRDNAKNTVYLQMNSLIPEDTAVYYCNSLVYKYIYNYDYWGQGTQVTVSS | high polyreactivity |
| QVQLVESGGVLVQAGGILRLSCAASGNIVVYYAMGWSRQAPGKERELVASITTSGGSTYYADSVKGRFTISRDNATNTVYFQMNSLKPEDTAVYYCAALYYYWLYYWGQGTQVTVSW | low polyreactivity |
| QVQLVESGGVLVQAGGRLGLSCAASGSTLRAYAMGWYRQATGKVRELVATISSGGRTYYADSVKGRFTISRDNAKNTVYLQMNSLKPEDTAVYYSAKREHGFFYYTYDYWGQGTQVTVSS | low polyreactivity |
| QVQLVESGGVLVQAGGRLSLICAASGRTFARYVMGWYRKAPGKERELVAAINSGGTTYYADSVKGRFTISRDNAKNTVYLQMNSLKPEDTAVYYCNARRGHYAYDYWGQGTQVTVSS | high polyreactivity |
| QVQLVESGGVLVQAGGSLRLSCAASGFIFETYVMGWYRQAPGKERELVDAISGGGSTYYADSVKGRFTISRDNAKKTVYLQMNSLKPEDTAVYYCAAKSGSFVHGGYQTPVYGSDYWGQGTQVTVSS | high polyreactivity |
| QVQLVESGGVLVQAGGSLRLSCAASGFIFYSYDMGWYRQAPGKERELDAAIRSDGSTYYADTVKGRFTISRDNAKNTVYLQMYSLKPEDTAVYDCAAKYGVRYWHYYSWTNDYWGQGTQVTVSS | low polyreactivity |
| QVQLVESGGVLVQAGGSLRLSCAASGFTFQAYTMGWYRQAPVKERELVAAISRSGGRTYYADSVKGRFTISRDNAKNTVYLQMNSLKPEDTAVYYCAKRTTYSDDYWGQGTQVTVSS | high polyreactivity |
| QVQLVESGGVLVQAGGSLRLSCAASGIIFFYNAMGWYRQAPGKERELVAAISARGGRTYYADSVKGRFTISRDNAKNTVYLQMNSLKPEDTAVYYCNAYRYGWEDMDYWGQGTQVTVSS | high polyreactivity |
| QVQLVESGGVLVQAGGSLRLSCAASGIIYYGYAMGWYRQAPRKERELVAAISRSGGSTYYADSVKGRFTISRDNAMNTVYFLMNSLKPEDTAVYYCAALVRTTSSYRYNFWGQGTQVTVSS | high polyreactivity |

Source: the nanobody polyreactivity screen of Harvey et al. (2022)
